The target of assay [1] is T1, Recombinant Human GFRα-1/GDNF Rα-1 Fc Chimera (human, UniProt P56159 25-429).
T1 construct: Purchased Fc chimera; It was captured on protein A in Biacore and coated on the plate in ELISA; also called GFRα1-Fc; recombinant human GFRα1-Fc chimera, carrier-free; not shown: Fc part of a purchased Fc chimera
T1 sequence (looked up): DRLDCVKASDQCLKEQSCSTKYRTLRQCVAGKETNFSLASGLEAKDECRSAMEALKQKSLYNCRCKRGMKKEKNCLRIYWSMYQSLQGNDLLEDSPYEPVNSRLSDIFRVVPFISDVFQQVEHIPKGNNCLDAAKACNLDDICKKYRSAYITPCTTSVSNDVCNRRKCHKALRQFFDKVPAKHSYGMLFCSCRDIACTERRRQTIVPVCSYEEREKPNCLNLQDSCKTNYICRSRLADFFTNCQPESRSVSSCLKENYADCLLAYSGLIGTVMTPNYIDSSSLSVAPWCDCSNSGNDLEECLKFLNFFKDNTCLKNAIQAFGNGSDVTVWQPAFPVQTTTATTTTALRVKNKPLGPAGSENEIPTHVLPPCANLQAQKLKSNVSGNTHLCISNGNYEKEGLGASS
The assay is described as follows: SPR (Biacore 2000), GFRα1-Fc captured on protein A, GDNFv as analyte, 1:1 Langmuir, 25 C. As for the experimental part: (§1) A Biacore® 2000 instrument is used to measure the binding kinetics of GDNFv to human and rat GDNF family receptors (GFRα1 and GFRα2). Measurements are performed at 25° C. Samples are dissolved in HBS-EP buffer (150 mM sodium chloride, 3 mM EDTA, 0.005% (w/v) surfactant P-20, pH 7.4). Protein A, Staphylococcus aureus is immobilized on flow cells 1 to 4 of a CM4 sensor chip (GE Healthcare #BR-1005-39) at a level of ˜200 response units (RUs) using amine coupling chemistry to capture GFR Fc chimera (Recombinant Human GFRα-1/GDNF Rα-1 Fc Chimera; Recombinant Human GFRα-2/GDNF Rα-2 Fc Chimera; Recombinant Rat GFRα-1/GDNF Rα-1 Fc Chimera; Recombinant Mouse GFRα-2/GDNF Rα-2 Fc Chimera).
(§2) Binding is evaluated using multiple cycles. Each cycle consists of the following steps: 1) injection of about 10 μL of GFR at a concentration of ˜1.0 μg/mL and a flow rate of 10 μL/min., aiming at a capture of 120-150 RUs; 2) injection of 250 μL of GDNFv at a flow rate of 50 μL/min., in a final concentration rage between 10 nM and 0.04 nM followed by […]. for dissociation; and 3) regeneration using about 30 μL of 10 mM glycine hydrochloride, pH 1.5. Association and dissociation rates for each cycle are evaluated using a “1:1 (Langmuir) binding” model in the BIAevaluation software, version 4.1.

In assay [2] the target is human c-Ret (human, UniProt P07949 29-1114, phosphorylation at Y1016 is the readout). Kind of assay: cell-based or functional assay.
The target in assay [3] is T1, Recombinant Human GFRα-1/GDNF Rα-1 Fc …. Kind of assay: Biacore (SPR), GFRα-1; 4 C sample of the 4-week stability comparison. (In general: In SPR one partner is held on a chip, and binding of the other changes the refractive index at the surface.)
The target in assay [4] is T2, Recombinant Rat GFRα-1/GDNF Rα-1 Fc Chimera (rat, UniProt Q62997 25-445).
T2 construct: Purchased Fc chimera; not shown: Fc part of a purchased Fc chimera
T2 sequence (looked up): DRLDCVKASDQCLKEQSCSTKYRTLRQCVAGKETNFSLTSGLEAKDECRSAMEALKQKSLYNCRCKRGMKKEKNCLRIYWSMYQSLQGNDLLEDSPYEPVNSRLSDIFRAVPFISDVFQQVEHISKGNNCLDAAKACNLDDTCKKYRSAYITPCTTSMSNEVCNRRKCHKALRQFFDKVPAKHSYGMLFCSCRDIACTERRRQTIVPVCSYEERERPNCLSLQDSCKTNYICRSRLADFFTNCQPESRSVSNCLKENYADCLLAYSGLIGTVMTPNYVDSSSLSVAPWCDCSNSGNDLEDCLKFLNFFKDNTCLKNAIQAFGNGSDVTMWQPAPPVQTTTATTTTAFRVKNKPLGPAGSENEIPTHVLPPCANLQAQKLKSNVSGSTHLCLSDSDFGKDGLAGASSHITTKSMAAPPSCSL
The assay is described as follows: SPR (Biacore 2000), rat GFRα1-Fc captured on protein A, GDNFv as analyte, 1:1 Langmuir, 25 C. As to the method: as §1, §2

In assay [5] the target is T3, Recombinant Human GFRα-2/GDNF Rα-2 Fc Chimera (human, UniProt O00451 22-441).
T3 construct: Purchased Fc chimera; not shown: Fc part of a purchased Fc chimera
T3 sequence (looked up): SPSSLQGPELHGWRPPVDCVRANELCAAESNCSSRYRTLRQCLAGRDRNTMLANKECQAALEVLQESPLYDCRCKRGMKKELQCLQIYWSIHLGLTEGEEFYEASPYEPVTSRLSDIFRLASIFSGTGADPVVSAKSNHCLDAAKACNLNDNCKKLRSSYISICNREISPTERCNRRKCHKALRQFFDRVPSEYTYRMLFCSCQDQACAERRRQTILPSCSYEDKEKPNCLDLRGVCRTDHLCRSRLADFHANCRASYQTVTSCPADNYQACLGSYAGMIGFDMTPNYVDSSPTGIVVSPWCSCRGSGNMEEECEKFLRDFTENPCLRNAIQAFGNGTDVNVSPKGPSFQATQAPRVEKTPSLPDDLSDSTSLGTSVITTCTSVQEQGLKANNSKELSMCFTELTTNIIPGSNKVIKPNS
The assay is described as follows: SPR (Biacore 2000), human GFRα2-Fc captured on protein A, GDNFv as analyte, 1:1 Langmuir, 25 C. As for the experimental part:
as §1, §2

Assay [6] addresses T1, Recombinant Human GFRα-1/GDNF Rα-1 Fc …. Kind of assay: ELISA, plate-bound human GFRα1-Fc; 4 C sample. As to the method: GDNF wild type and variants are tested in an ELISA assay, in which binding of the GDNF proteins to the plate-bound receptor (GFRα1) is measured. A “no GDNF” condition and/or an “irrelevant protein” condition are used as negative controls.
(§3) Each well of a 96-well plate (Greiner 655081 Immunobind ELISA plates) is coated with 70 μl of human GFRα1 (recombinant human GFRα1-Fc chimera, carrier-free) at 1 μg/ml in carbonate buffer, pH 9.6. If an irrelevant receptor is coated, it is an irrelevant Fc chimera and is coated at the same concentration as GFRα1. The plates are sealed and incubated at 4° C. overnight. The wells are aspirated and washed twice with washing buffer (20 mM Tris (hydroxymethyl) aminomethane, pH 7.4, 0.15 M NaCl, 0.1% Tween-20), using an automatic plate washer. The plates are blocked with 200 μl blocking buffer per well (3% Carnation Instant milk in the above washing buffer) for at least 1 hour at room temperature. Plates are washed twice with washing buffer.
GDNF proteins are serially diluted into blocking buffer at an appropriate concentration range, typically beginning at 5 μg/ml and serially diluting 1:10. A no GDNF control is used, which consists of blocking buffer alone. 50 μl of each GDNF solution is added to the GFRα1 coated wells in triplicate. The plates are incubated for 1.5 hours at room temperature. The wells are then washed 3 times with washing buffer.

For assay [7] the target is unchanged. Kind of assay: ELISA, plate-bound human GFRα1-Fc; lower end of the 95% confidence range, n = 8. As for the experimental part: as §3, with “buffer. […]” for “buffer.”
(§4) A 50 μl aliquot of horseradish peroxidase-conjugated streptavidin (Jackson ImmunoResearch, catalog #016-030-084), diluted 1:1000 in blocking buffer, is added to each well and incubated for 20-30 minutes at room temperature. […] The absorbance of the wells is read at 490 nm on a Molecular Devices SpectraMax250 plate reader. The average absorbance for the triplicate wells for each condition are determined, and the resulting values are processed for EC₅₀ calculation with Graph Pad Prism software to provide a 95% confidence range.
Background: ELISA stands for enzyme-linked immunosorbent assay.

Assay [8] has the same target. The assay is described as follows: ELISA, plate-bound human GFRα1-Fc; upper end of the 95% confidence range, n = 8. As to the method:
as §3, with “buffer. […]” for “buffer.”
as §4

Assay [9] addresses T3, Recombinant Human GFRα-2/GDNF Rα-2 Fc …. The assay is described as follows: SPR (Biacore 2000), human GFRα2-Fc captured on protein A, GDNF as analyte, 1:1 Langmuir, 25 C. As to the method: as §1, §2
For assay [10], the target named is T1, Recombinant Human GFRα-1/GDNF Rα-1 Fc …. The assay is described as follows: SPR (Biacore 2000), GFRα1-Fc captured on protein A, GDNF as analyte, 1:1 Langmuir, 25 C; in the presence of 400 mM NaCl.

Numbering of substitutions follows the chain as printed. Names may count otherwise.

Broadly, the Kd is the constant that tells how readily two partners part at equilibrium. For orientation: koff means the rate constant with which the complex falls apart. In general, kon refers to the second-order rate constant of association. In general, EC50 refers to the concentration at which the effect is half-maximal.

human c-Ret, sequence (P07949 29-1114): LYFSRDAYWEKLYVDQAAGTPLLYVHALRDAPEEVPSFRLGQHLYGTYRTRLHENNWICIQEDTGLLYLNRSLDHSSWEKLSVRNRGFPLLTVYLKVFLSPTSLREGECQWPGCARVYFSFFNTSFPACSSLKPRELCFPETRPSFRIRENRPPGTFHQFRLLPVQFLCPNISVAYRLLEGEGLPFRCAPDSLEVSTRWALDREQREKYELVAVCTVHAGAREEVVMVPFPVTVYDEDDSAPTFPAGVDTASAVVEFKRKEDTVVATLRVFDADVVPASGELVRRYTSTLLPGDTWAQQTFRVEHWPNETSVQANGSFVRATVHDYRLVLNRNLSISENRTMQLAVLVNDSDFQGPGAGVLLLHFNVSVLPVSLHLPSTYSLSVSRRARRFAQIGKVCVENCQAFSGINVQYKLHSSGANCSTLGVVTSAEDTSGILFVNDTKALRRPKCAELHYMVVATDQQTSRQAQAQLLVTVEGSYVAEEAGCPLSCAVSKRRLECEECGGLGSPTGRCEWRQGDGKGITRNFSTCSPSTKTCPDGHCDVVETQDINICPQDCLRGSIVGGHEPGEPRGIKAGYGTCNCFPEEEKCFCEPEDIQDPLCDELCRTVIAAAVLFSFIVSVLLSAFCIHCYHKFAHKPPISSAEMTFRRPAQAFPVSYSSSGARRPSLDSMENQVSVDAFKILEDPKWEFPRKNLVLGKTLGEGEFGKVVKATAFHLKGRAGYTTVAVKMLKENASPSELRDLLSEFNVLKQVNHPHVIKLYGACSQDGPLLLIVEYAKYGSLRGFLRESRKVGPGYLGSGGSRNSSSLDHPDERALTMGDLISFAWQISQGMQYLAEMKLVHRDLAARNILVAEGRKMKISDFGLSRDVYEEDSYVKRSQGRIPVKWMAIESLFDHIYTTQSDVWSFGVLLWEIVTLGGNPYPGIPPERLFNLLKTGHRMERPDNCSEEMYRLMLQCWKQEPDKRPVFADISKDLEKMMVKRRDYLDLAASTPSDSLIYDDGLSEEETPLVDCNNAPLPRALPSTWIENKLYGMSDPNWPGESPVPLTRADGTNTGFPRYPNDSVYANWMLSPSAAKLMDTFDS

B1: E. coli-Δ31-N38Q-D95E-GDNF (SEQ ID NO: 9) (ligand)
chain: RGQRGKQRGCVLTAIHLNVTDLGLGYETKEELIFRYCSGSCDAAETTYDKILKNLSRNRRLVSEKVGQACCRPIAFDDDLSFLDDNLVYHILRKHSAKRCGCI
notes: also called GDNF variant 2; clone D9
With B1, in assay [1], the Kd stood at 0.047 nM, the koff is 0.00016 s⁻¹ and the kon was found to be 3.9e+06 M⁻¹ s⁻¹.

B2: E. Coli-Δ31-N38Q-K84A-R88K-R90K-D95E-GDNF (SEQ ID NO: 12) (ligand)
chain: B1 chain with K53A, R57K, R59K
notes: also called Δ31-N38Q-KAKKE; GDNF variant 3
As to B2, in [1], the Kd worked out at 0.035 nM, the koff is 0.00016 s⁻¹ and the kon stood at 5e+06 M⁻¹ s⁻¹.

B3: CHO-Δ31-N38Q-K84A-R88K-R90K-D95E-GDNF (SEQ ID NO: 12) (ligand)
chain: B1 chain with K53A, R57K, R59K
modifications: N-glycosylated at N49 (numbering of mature GDNF)
notes: Expressed in CHO cells; also called Δ31-N38Q-KAKKE; GDNF variant 3
Take B3: the “c-Ret phosphorylation at Y1016, EC50” value in [2] fell in the range of 0.008 to 0.015 µg/mL. The Kd in [3] worked out at 0.029 nM; in assay [1], 0.029 nM; in assay [4], 0.021 nM; in assay [5], 0.044 nM. Also, the values for the koff in assay [1], in assay [4] and in [5] were 0.00014 s⁻¹, 0.00021 s⁻¹ and 0.00042 s⁻¹, respectively. In addition, the kon amounted to 6.2e+06 M⁻¹ s⁻¹ in assay [1], 9.9e+06 M⁻¹ s⁻¹ in [4] and 9.6e+06 M⁻¹ s⁻¹ in assay [5].

B4: CHO Δ31-N38Q-K84A-R88K-R90K-D95E-K125E-R130E GDNF (SEQ ID NO: 15) (ligand)
chain: B1 chain with K53A, R57K, R59K, K94E, R99E
For the molecule B4, in assay [2], the “c-Ret phosphorylation at Y1016, EC50” value lay in the range of 0.008 to 0.015 µg/mL.

B5: E. Coli-Δ31-GDNF (SEQ ID NO: 8) (ligand)
chain: B1 chain with Q7N, E64D
notes: The NdeI start codon encodes a Met before R32; also called Delta-31 GDNF; Variant 1
Regarding B5, in [1], the Kd came to 0.044 nM, the koff came out at 0.00017 s⁻¹ and the kon turned out to be 4.2e+06 M⁻¹ s⁻¹.

B6: E. Coli-WT-GDNF (SEQ ID NO: 3) (ligand)
chain: MSPDKQMAVLPRRERNRQAAAANPENSRGKGRRGQRGKNRGCVLTAIHLNVTDLGLGYETKEELIFRYCSGSCDAAETTYDKILKNLSRNRRLVSDKVGQACCRPIAFDDDLSFLDDNLVYHILRKHSAKRCGCI
notes: Expressed in E. coli, not glycosylated; also called WT E. coli GDNF; WT-E. coli GDNF
As to B6, the “c-Ret phosphorylation at Y1016, EC50” value in assay [2] fell in the range of 0.008 to 0.015 µg/mL. The results for the EC50 in assay [6], in [7] and in assay [8] were 0.4 nM, 0.3 to 0.4 nM and 0.3 to 0.4 nM, respectively. Moreover, the results for the Kd in assay [3], in assay [9] and in assay [10] were 0.064 nM, 0.1 nM and 0.064 nM, respectively. Besides, the koff in assay [9] was 0.00026 s⁻¹; in assay [10], 0.00035 s⁻¹. The kon is 2.4e+06 M⁻¹ s⁻¹ in assay [9] and 6e+06 M⁻¹ s⁻¹ in assay [10].

These data come from patent US20130324474A1 (Eli Lilly, published 2013).
